In US20160200799A1:
Changes are numbered by the printed parent chain.

B1: Group 42 representative clone F083-249, Fab-cp3-type antibody (Fab, V domains shown)
VH: QVQLVQSGSEVKKPGSSVKVSCKASGVTFSSYAISWVRQAPGQGLEWMGGISPMFGTTRYAQKFQGRVTITADESTRTGFMELSSLRSGDTAVYYCARSPTYYPGALDMWGQGTTVTVSS
VL: DVVMTQSPSLLSASVGDRVTITCRASQAIANFVSWFQQKPGEAPKSLIHAASTLQGGVPPRFSGSGYGAVFTLTITNLQPEDFATYFCQQYNSLPFTFGPGTDVEVR
B2: Group 63 representative clone F083-336, Fab-cp3-type antibody (Fab, V domains shown)
VH: QVQLQQSGAEVKQPGSSVKVSCKASGGIFRSNAISWVRQAPGQGLEWMGGIVALFGTANYAQKFQGRVTITADESTSTVYMELSSLRSEDTARYYCARNSGYHISGFYLDYWGQGTLVTVSS
VL: EIVLTQSPSSLSASVGDRVTITCRASQGISNYLAWYQQRPGKVPKLLIYTASTLLSGVPSRFSGGGSGTDYTLTISSLQPEDVATYYCQEYKSVPLTFGPGTKVEIK
B3: Group 55 representative clone F083-305, Fab-cp3-type antibody (Fab, V domains shown)
VH: EVQLVESGAEVKKPGSSVKVSCKASGSIFSNYAISWVRQAPGQGLEWMGGIVPMFGTTRFAQKFQGRVTITADESRSTAYMELNNLISEDTAVYYCARAPLIYNWYFDLWGRGTLVTVSS
VL: EIVLTQSPSFVSASVGDRVSITCRASQGISSWLAWYQQKPGKAPRLLIYGASNLQSGVPSRFSGSGSGTDYTLTINSLQPEDFATYYCQQARTFPVTFGQGTKLEIK
B4: Group 56 representative clone F083-318, Fab-cp3-type antibody (Fab, V domains shown)
VH: B3 VH with E6Q, K23Q, S35N, M54I, V68L, S75P, F107Y
VL: B2 VL with R39K, T50A, L55Q, G65S, Y71F, E90K, K92N, V94A, L96H, E105D
B5: Group 58 representative clone F083-307, Fab-cp3-type antibody (Fab, V domains shown)
VH: QVQLQQSGADVKKPGSSVKVSCKASGGTFGNYAISWVRQAPGQGLEWMGGITPIFGPANYAQRFQGRVTISADISTRTAYMELSSLRSEDTAIYYCARHPTYYFGSAMEYWGQGTLVTVSS
VL: SYELTQPPSVSVAPGQTATITCGGDRIGTGPVHWYQQRPGRAPVLIIYGSTHRPSGIPERFSGSKSVNTATLSISGVGVGDEADYYCQVWDTSTAQPIVFGGGTKLTVLS
B6: Group 51 representative clone F083-302, Fab-cp3-type antibody (Fab, V domains shown)
VH: QVQLVQSGAEVKKPGSSVKVSCEASGATFSSNAFSWVRQAPGQGPEWMGGIITMFRKAEYAQKFQGRVTITAGELGSTAYMEVRSLTFEDTAVYYCARHSGYHLIGYFDSWGQGTLVTVSS
VL: QSVLTQPPSVSAAPGQKVTISCSGTTSNIGNNYVSWYQQLPGAAPKLLIYDNNKRPSGIPDRFSGSKSDTSATLGITGLQTGDEADYYCGTWVSSLSVWVFGGGTKLTVLG
B7: Group 62 representative clone F083-349, Fab-cp3-type antibody (Fab, V domains shown)
VH: QVQLVQSGAEVRKPGSSVKVSCKASGVIFIKFAISWVRQAPGQGLEWMGGIIPMFGTTNYAQKFQGRVTITADGSTNTVYMELSSLTSEDTAVYYCAKEEGYYYGSGPLDSWGQGTLVTVSS
VL: DIVMTQSPDFLSVSLGERVTINCKSSQTVLNRSNNKNYLAWYQKKPGQPPRLLLYWSSTRESGVPDRFSGSGSETDFALTITNLQAEDLAVYFCQQFYDMPVTFGGGTKLEIK
B8: Group 2 representative clone F082-220, Fab-PP-type antibody (Fab, V domains shown)
VH: QVQLVQSGAEVKKPGSSVKVSCKASGGIFRSNAVSWVRQAPGQGLEWMGGIIAIFGTPKYAQKFQGRVTITADESTSTVYMELSGLRYEDTAVYYCARGPNYYESYFDYWGQGTLVTVSS
VL: DIVMTQSPPSLSASVGDRVTITCRASQGISNYLAWYQQKPGKAPKLLIFGASTLHSGVSSRFSGSGSGPDFTLTISSLQPEDAATYYCQKYHSAPLTFGGGTKVEMK
B9: Group 36 representative clone F082-243, Fab-PP-type antibody (Fab, V domains shown)
VH: QVQLQQSGAEVKKPGSSVKVSCKASGGIFRKNAISWVRQAPGQGLEWMGGIIAIFGTANYAQKFQGRVTITADDSTNTVYMELTSLRYEDTAVYYCARGPNYYENYFDFWGQGTLVTVSS
VL: EIVLTQSPSSLSASLRDTVTITCRTSQAITNYLAWYQQRPGKAPKLLIYAASVLQSGVPSRFSGSGSGTDFTLTISSLQPEDFATYYCQKYDSAPYTFGQGTKLEIK
B10: Group 57 representative clone F083-103, Fab-cp3-type antibody (Fab, V domains shown)
VH: QVQLQQSGADVKKAGSSVKVSCKASGRTFGNYAISWVRQAPGQGLEWMGGITPIFGAANYAQKFQGRVTISADLSTRMVYMDLSSLRSDDTAFYYCAGHPTYHYGSAMDYWGQGTLVTVSS
VL: QSVLTQPPSVSAAPGQKVTITCSGSSSNIGNNYVSWYQQLPGTAPKLLISEGSNRPSGIPDRFSGSKSGTSATLGITGLQTGDEATYYCATWDDSLSVVLFGGGTRLTVLS
B11: Group 59 representative clone F083-351, Fab-cp3-type antibody (Fab, V domains shown)
VH: B10 VH with Q5V, T101M
VL: QSVLTQPPSASGTPGQRVSISCFGSRSNVGSSSVNWYQQLPGRAPKLLIQRNDQRPSGVPDRFSGSKSGTSASLAISGLQSDDESTYYCAAWDDSVKSVVFGGGTQLTVLG
B12: Group 80 representative clone F083-373, Fab-cp3-type antibody (Fab, V domains shown)
VH: B10 VH with Q5V, A14P, K19R, R77T, H103Y, A107P
VL: EIVLTQSPSSLSASVGDRVTITCRASQSIATYLNWYQQKPGKAPNLLIYAASNLQSGVPSRFSGSGSGTDFTLTISSLQPEDFATYVCLQSYSATLTFGGGTKVEIK

Columns and labels:
[1] = molecular target: Influenza virus A/Brisbane/59/2007 (H1N1) (Influenza A virus A/Brisbane/59/2007 (H1N1)); assay: ELISA on coated viral particles
[2] = molecular target: Influenza virus A/California/7/2009pdm (H1N1pdm) (Influenza A virus A/California/7/2009pdm (H1N1pdm)); assay: ELISA on coated viral particles
[3] = molecular target: Influenza virus A/New Caledonia/20/1999 (H1N1) (Influenza A virus A/New Caledonia/20/1999 (H1N1)); assay: ELISA on coated viral particles
[4] = molecular target: Influenza virus A/Panama/2007/1999 (H3N2) (Influenza A virus A/Panama/2007/1999 (H3N2)); assay: ELISA on coated viral particles
[5] = molecular target: Influenza virus A/Brisbane/59/2007 (H1N1) (Influenza A virus A/Brisbane/59/2007 (H1N1)); assay: cell-based or functional assay
[6] = molecular target: Influenza virus A/California/7/2009pdm (H1N1pdm) (Influenza A virus A/California/7/2009pdm (H1N1pdm)); assay: cell-based or functional assay
[7] = molecular target: Influenza virus A/Indonesia/5/2005/PR8-IBCDC-RG2 (H5N1) (Influenza A virus A/Indonesia/5/2005/PR8-IBCDC-RG2 (H5N1)); assay: cell-based or functional assay
[8] = molecular target: Influenza virus A/Panama/2007/1999 (H3N2) (Influenza A virus A/Panama/2007/1999 (H3N2)); assay: cell-based or functional assay
[9] = molecular target: Influenza virus A/Suita/1/2009pdm (H1N1 2009 pandemic) (Influenza A virus A/Suita/1/2009pdm (H1N1pdm)); assay: cell-based or functional assay

| Binder | Binding activity (absorbance at 492 nm) [1] | Binding activity (absorbance at 492 nm) [2] | Binding activity (absorbance at 492 nm) [3] | Binding activity (absorbance at 492 nm) [4] | HI activity [5] | Neutralizing activity (%) at 100 µg/ml [5] | Neutralizing activity (%) at 250 µg/ml [5] | HI activity [6] | Neutralizing activity (%) at 100 µg/ml [7] | Neutralizing activity (%) at 250 µg/ml [7] | Neutralizing activity (%) at 100 µg/ml [8] | Neutralizing activity (%) at 250 µg/ml [8] | Neutralizing activity (%) at 100 µg/ml [9] | Neutralizing activity (%) at 250 µg/ml [9] |
| --- | --- | --- | --- | --- | --- | --- | --- | --- | --- | --- | --- | --- | --- | --- |
| B1 | 3.02 | 2.38 | 3.13 | 1.15 | – | – | – | – | – | – | – | – | – | – |
| B2 | 1.89 | 1.56 | 1.61 | 0.15 | – | – | – | – | – | – | – | – | – | – |
| B3 | 2.88 | 1.29 | 3.07 | 0.15 | – | – | – | – | – | – | – | – | – | – |
| B4 | 2.85 | 0.71 | 3.01 | 0.16 | – | – | – | – | – | – | – | – | – | – |
| B5 | 3.04 | 2.37 | 3.3 | 0.19 | – | – | – | – | – | – | – | – | – | – |
| B6 | 2 | 1.55 | 1.92 | 0.23 | – | – | – | – | – | – | – | – | – | – |
| B7 | 2.93 | 2.79 | 3.17 | 0.15 | – | – | – | – | – | – | – | – | – | – |
| B8 | – | – | – | – | > 160 µg/mL | 100% | 100% | > 160 µg/mL | 90.6% | 97.1% | 3.4% | 34.2% | 85.3% | 97.7% |
| B9 | – | – | – | – | > 160 µg/mL | 84.2% | 94.1% | > 160 µg/mL | 50.6% | 52.9% | 7.5% | -2.7% | 97.7% | 85.9% |
| B10 | 2.39 | 1.82 | 2.43 | 0.16 | – | – | – | – | – | – | – | – | – | – |
| B11 | 3.09 | 2.62 | 3.21 | 0.21 | – | – | – | – | – | – | – | – | – | – |
| B12 | 1.31 | 0.17 | 1.39 | 0.13 | – | – | – | – | – | – | – | – | – | – |
